In FireProtDB (doi:10.1006/jmbi.2001.4728):

Details: Pseudomonas aeruginosa (strain ATCC 15692 / DSM 22644 / CIP 104116 / JCM 14847 / LMG 12228 / 1C / PRS 101 / PAO1); pH 7; 10 °C; Urea; Fluorescence; sodium phosphate 50 mM; reversible: yes; whole UniProt chain shown

B1: Cytochrome c-551 wild type, P00099 (protein)
chain: MKPYALLSLLATGTLLAQGAWAEDPEVLFKNKGCVACHAIDTKMVGPAYKDVAAKFAGQAGAEAELAQRIKNGSQGVWGPIPMPPNAVSDDEAQTLAKWVLSQK
- denaturant m value: 1.1 kcal/mol/M
- denaturant midpoint (higher = more stable): 6.4 M
- unfolding free energy: 7.1 kcal/mol
